# Data reported in article PMC6005519, “Reconstitution and functional studies of hamster P-glycoprotein in giant liposomes” (PLoS ONE, 2018).
# System: T1, Nc1ncnc2c1ncn2[C@@H]1O[C@H](COP(=O)(O)OP(=O)(O)OP(=O)(O)O)[C@@H](O)[C@H]1O
# T1 construct: Purified Pgp extracted from Chinese Hamster Ovary B30 cells, reconstituted in giant liposomes
# Assay: Km of ATP from Rho123 transport rates in giant proteoliposomes; colorimetric ATPase assay
# Format: biochemical, Cricetulus griseus
# P-glycoprotein (Pgp, ABCB1) (Cricetulus griseus), sequence (chain, as listed by the source): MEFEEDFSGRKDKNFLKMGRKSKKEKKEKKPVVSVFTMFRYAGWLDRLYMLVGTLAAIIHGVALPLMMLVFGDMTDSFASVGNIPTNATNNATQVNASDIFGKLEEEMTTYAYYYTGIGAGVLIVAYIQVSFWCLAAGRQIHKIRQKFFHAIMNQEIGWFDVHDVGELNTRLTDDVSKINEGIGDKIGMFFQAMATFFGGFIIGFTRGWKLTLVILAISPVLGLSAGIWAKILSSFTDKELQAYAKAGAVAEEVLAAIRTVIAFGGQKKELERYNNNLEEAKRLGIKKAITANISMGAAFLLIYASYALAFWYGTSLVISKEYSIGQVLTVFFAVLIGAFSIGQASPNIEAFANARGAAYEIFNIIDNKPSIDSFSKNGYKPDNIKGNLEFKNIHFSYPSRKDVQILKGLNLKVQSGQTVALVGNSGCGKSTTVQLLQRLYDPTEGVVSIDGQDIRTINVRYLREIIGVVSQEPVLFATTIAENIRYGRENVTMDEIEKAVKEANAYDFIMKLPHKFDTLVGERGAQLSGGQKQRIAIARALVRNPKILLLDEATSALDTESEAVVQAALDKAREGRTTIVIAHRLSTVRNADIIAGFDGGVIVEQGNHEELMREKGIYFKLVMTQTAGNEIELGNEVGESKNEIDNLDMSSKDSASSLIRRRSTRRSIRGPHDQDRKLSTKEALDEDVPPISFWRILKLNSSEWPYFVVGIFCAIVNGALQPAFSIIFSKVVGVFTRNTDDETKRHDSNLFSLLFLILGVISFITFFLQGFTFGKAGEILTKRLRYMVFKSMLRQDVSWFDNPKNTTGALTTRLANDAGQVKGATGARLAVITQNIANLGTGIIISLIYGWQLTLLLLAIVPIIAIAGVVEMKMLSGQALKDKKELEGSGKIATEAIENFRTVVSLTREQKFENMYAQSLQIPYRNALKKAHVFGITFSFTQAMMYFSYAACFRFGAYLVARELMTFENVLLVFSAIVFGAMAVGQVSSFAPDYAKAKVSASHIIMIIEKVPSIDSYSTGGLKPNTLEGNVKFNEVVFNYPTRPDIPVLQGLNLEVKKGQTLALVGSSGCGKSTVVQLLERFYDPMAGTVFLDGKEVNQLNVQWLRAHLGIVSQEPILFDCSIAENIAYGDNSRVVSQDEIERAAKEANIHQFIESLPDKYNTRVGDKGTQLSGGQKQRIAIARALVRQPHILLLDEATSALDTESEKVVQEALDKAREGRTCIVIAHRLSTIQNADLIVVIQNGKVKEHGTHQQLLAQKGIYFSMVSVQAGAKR
substance,measurement,value
"P-glycoprotein (Pgp, ABCB1) (Cricetulus griseus)",Km,420 ± 750 µM
